In patent US12648985B2, “Immunotherapeutic for prostate cancer treatment” (Hexamer Therapeutics, Inc., priority 2019, dated 2026):
Entries after “also recorded” stand apart in the source; their conditions may differ.

What was measured:
testosterone = experiment: serum testosterone by LC-MS/MS in immunized mice; format: in vivo; details: BALB/cJ mice
Method: (§1) Constructs 1-7 (1 and 10 ug) were adjuvanted with a monophosphoryl lipid-A/squalene-based adjuvant and injected into BALB/cJ mice. Each construct is injected into 5 mice (n=5 per construct). After 14, 28, and 42 days, mouse sera were obtained to measure anti-GnRH IgG endpoint titers by ELISA using dilutions from […] (sequential 10-fold dilutions). […] Testosterone was extracted from the sera, derivatized, and separated and quantified by LC-MS/MS.
A castrate T level is shown by the dotted line.

GnRH = experiment: anti-GnRH IgG endpoint titers by ELISA in sera of immunized mice; format: in vivo; details: BALB/cJ mice
Method: B-cell function: Standard ELISA was used to measure therapeutic efficacy by GnRH-specific antibody titer in the collected mouse sera. ELISA plates were coated with GnRH-BSA conjugate and 8 sequential 10-fold dilutions (from 1:10^3 to 1:10^10) of sera in blocking buffer were made and added to the ELISA plate wells. An HRP-labeled anti-mouse secondary antibody was added and the plates developed with a colorimetric substrate and measured in an ELISA plate reader. Data were plotted, curve fitted, and statistically analyzed using Prism Graph Pad software for calculating mid- and end-point titers.
as §1
The solid line in the group of dots is the geometric mean and the error bars are the geometric standard deviation. Two doses were chosen for this study: 1 and 10 ug. IgG titers reached maximum levels 42 days following prime immunization.

Molecule	inducing castrate levels of T compared with KLH+GnRH (positive control) (testosterone; FIGS. 4-6)	testosterone (T) levels induced (testosterone; by d42, FIG. 6)	anti-GnRH IgG antibody titers, 1 ug versus 10 ug dose (GnRH; 1 and 10 ug, monophosphoryl lipid-A/squalene-based adjuvant, FIG. 3)	anti-GnRH IgG antibody titers, rank among the constructs (GnRH; FIG. 3, listed as TCE3-Hex-TCE4+GnRH)	inducing IgG titers compared with KLH+GnRH (positive control) (GnRH; FIGS. 4-6)	anti-GnRH IgG titers, d28 versus d42 (GnRH; days post-prime immunization, FIG. 3)	anti-GnRH IgG antibody titers, rank among the constructs (GnRH; FIG. 3)
construct 2: GnRH peptide immunogen (SEQ ID NO: 70) conjugated to the TCE3-Hex-TCE4 hexamer scaffold peptide (SEQ ID NO: 68) (conjugate, conjugated; GnRH; TCE3_Hex_TCE4) chain 1: QHWSYGLRPGDGEGC chain 2: GQEAFSHIRIPLPHDIRSIGKEIRSIGREIRSIGKEIRSIGREFQDAYNAAGGHNAVF	about the same as KLH+GnRH	castrate levels of T	equal antibody titers at both 1 and 10 ug	highest antibody titers; also recorded: highest titers or induced high titers sooner	about the same as KLH+GnRH	almost equal levels between d28 and d42	
construct 5: scaffold peptide (SEQ ID NO: 67): GnRH peptide and TCE2 at N- and C-terminus of the monomeric peptide, self-assembled (also: self-assembled) GQHWSYGLRPGGDIRSIGKEIRSIGREIKSIGREIRSIGRGPGPFNNFTVSFWLRVPRVSASHLEQY							highest titers or induced high titers sooner
